From PMC10227007 come the findings set out here.

The target in assay [1] is OsSERL2-MYC-cCFP (Oryza sativa japonica cv. Zhonghua 11 (ZH11)). Kind of assay: split reporter (BiFC, NanoBiT); BiFC in rice protoplasts, nVenus and cCFP fusions co-expressed, YFP fluorescence by confocal microscopy (Leica TCS SP5); in one experiment the protoplasts were kept at 28 °C or 4 °C for 24 h and the intensity measured by Image J.
In assay [2] the target is MYC-OsSERL2 (overexpression line MYC-OsSERL2-OE1) (Oryza sativa japonica cv. Zhonghua 11 (ZH11)). As to the kind of experiment: co-IP; seedlings of COG1-HA-L1/MYC-OsSERL2-OE1 treated at 4 °C for 0, 24 and 48 h; total protein adjusted to equivalent levels of COG1-HA; precipitated with Anti-c-Myc Magnetic Beads, COG1-HA band measured by Image J (0 h = 1.0).

COG1-HA-nVenus (receptor) had a BiFC fluorescence intensity at 4 °C for 24 h, relative to 28 °C (1.0) (relative to 28 °C (1.0)) in assay [1] of 4.1.
With “COG1-HA (from the COG1::COG1-HA transgene, line COG1-HA-L1) (receptor)”, in assay [2], the relative density of the co-precipitated COG1-HA band after 24 h at 4 °C, against 0 h (1.0) (relative to 0 h (1.0)) was 4.7 and the relative density of the co-precipitated COG1-HA band after 48 h at 4 °C, against 0 h (1.0) (relative to 0 h (1.0)) was determined as 5.8.
